Measurements taken from the supplement of paper PMC10126150.
± gives the standard deviation of the averaged measurements.

Tested on: ATP
Experiment: switch fluorescence ratio, 500 uM ATP over buffer (Cy3 cluster intensity, sum of 5 cycles each) (fold (ratio)); higher = stronger signal-on switching upon ATP binding; sequences stand for … in TCGTCGGCAGCGTCAGATGTGTATAAGAGACAGTTTTTTTTTTTTTTTTTTTTTTTTT…TC
Conditions: aptamer strand: ATP DNA aptamer (quencher-CACCTGGGGGAGTATTGCGGAGGAAGG + anchor), 100 nM annealed; ATP concentration: 500 uM
Method in brief: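 Exposure to 500 uM ATP lasted 15 min at 22 °C before imaging, and a selection-buffer image was taken beforehand, for Cy3-labelled switching-strand clusters on a modified Illumina MiSeq flow-cell annealed to 100 nM quencher-labelled ATP aptamer. Five buffer/ATP cycles were run with NaOH stripping and re-annealing between them. The fluorescence ratio per cluster is summed target-cycle over summed buffer-cycle Cy3 intensity, averaged per switch-domain sequence. Clusters outside 100-1000 RFU were excluded.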

Row | Sequence | switch fluorescence ratio
1 | TCCGGGGTGG | 1.022 ± 0.0097
2 | TCCGGTTCCT | 1.07 ± 0.036
3 | TCCGGTTTTT | 1.07 ± 0.16
4 | TCCGTATATT | 1.103 ± 0.0024
5 | TCCGTGAGAT | 1.44 ± 0.047
6 | TCCGTGTGTG | 0.989 ± 0.0075
7 | TCCTCAGCGT | 3 ± 1
8 | TCCTGATGTT | 0.982 ± 0.046
9 | TCCTGATTGA | 0.984 ± 0.063
10 | TCCTGTGAAC | 1.04 ± 0.046
11 | TCCTGTGGGT | 0.99 ± 0.036
12 | TCCTGTTTTC | 0.987 ± 0.021
13 | TCCTTATAGG | 1 ± 0.044
14 | TCCTTCGGTT | 1.393 ± 0.0023
15 | TCCTTGTTTT | 1 ± 0.028
16 | TCCTTTAAAT | 1.13 ± 0.0032
17 | TCCTTTGGTT | 0.9865 ± 0.0034
18 | TCCTTTTTTA | 1.01 ± 0.015
19 | TCGAAAAAGG | 1.0045 ± 8.5e-06
20 | TCGAAAAATT | 0.975 ± 0.048
21 | TCGAAAATAT | 1.5 ± 1
22 | TCGAAAGTTA | 1.04 ± 0.022
23 | TCGAAGATGT | 0.996 ± 0.019
24 | TCGAAGGAAT | 1.24 ± 0.037
25 | TCGAAGGGCT | 1.016 ± 0.01

Row | Sequence | switch fluorescence ratio
26 | TCGAAGGGGA | 0.971 ± 0.035
27 | TCGAATAATT | 1 ± 0.041
28 | TCGAATAGAT | 0.958 ± 0.04
29 | TCGAATATTT | 1.02 ± 0.073
30 | TCGACGGGGA | 1.1 ± 0.047
31 | TCGAGATGG | 0.97289 ± 7.7e-05
32 | TCGAGATTAT | 1.01 ± 0.027
33 | TCGAGCCTTT | 0.9909 ± 0.0014
34 | TCGAGGGGAA | 1.13 ± 0.15
35 | TCGAGGGGTT | 0.993 ± 0.011
36 | TCGAGGTTGC | 0.993 ± 0.025
37 | TCGAGTTCAG | 0.99 ± 0.021
38 | TCGATAATTA | 0.97 ± 0.09
39 | TCGATACATG | 0.993 ± 0.034
40 | TCGATAGTTG | 0.961 ± 0.054
41 | TCGATATATG | 1 ± 0.028
42 | TCGATATTTA | 0.982 ± 0.02
43 | TCGATCGCAT | 2.51 ± 2.2
44 | TCGATCGCTA | 1.43 ± 0.59
45 | TCGATCTGTG | 0.99652 ± 0.00045
46 | TCGATGTTGT | 0.987 ± 0.03
47 | TCGATTTTGG | 1 ± 0.029
48 | TCGCAGGGGG | 0.992 ± 0.043
49 | TCGCCATGAT | 0.999 ± 0.02
50 | TCGCCCGAGC | 1.09 ± 0.11

Row | Sequence | switch fluorescence ratio
51 | TCGCCGTTCT | 0.99 ± 0.033
52 | TCGCGAGAGC | 1.004 ± 0.0057
53 | TCGCGCCCTG | 1.03 ± 0.043
54 | TCGCGGTTCT | 1.11 ± 0.085
55 | TCGCGTCTCA | 1.01 ± 0.046
56 | TCGCTATTTA | 1.033 ± 0.0085
57 | TCGCTGAAGC | 1.02 ± 0.013
58 | TCGCTTAATT | 1.02 ± 0.032
59 | TCGCTTCTCT | 1.76 ± 1
60 | TCGCTTTACT | 3.87 ± 0.81
61 | TCGGAAGACA | 1.01 ± 0.0069
62 | TCGGAAGGCT | 0.999 ± 0.089
63 | TCGGAAGGG | 0.988 ± 0.037
64 | TCGGAATATT | 1.09 ± 0.062
65 | TCGGAATTGT | 0.9992 ± 0.0056
66 | TCGGACGACC | 1.15 ± 0.12
67 | TCGGACTCGG | 0.963 ± 0.017
68 | TCGGACTGGG | 1.01 ± 0.022
69 | TCGGAGAGGG | 0.974 ± 0.037
70 | TCGGAGGAAG | 1.02 ± 0.012
71 | TCGGAGGCCT | 1.04 ± 0.04
72 | TCGGAGGTGT | 1.01 ± 0.027
73 | TCGGAGTAG | 1.04 ± 0.031
74 | TCGGATAGCT | 1.02 ± 0.014
75 | TCGGATAGTC | 1.01 ± 0.026

Row | Sequence | switch fluorescence ratio
76 | TCGGATCCAA | 1.048 ± 0.0022
77 | TCGGATTGGA | 0.981 ± 0.028
78 | TCGGCACCAA | 1.05 ± 0.046
79 | TCGGCAGTGG | 1.03 ± 0.027
80 | TCGGCCATCG | 1 ± 0.016
81 | TCGGCGTATC | 0.979 ± 0.01
82 | TCGGCGTTCA | 1.02 ± 0.02
83 | TCGGCTCTTG | 1.013 ± 0.0046
84 | TCGGCTTGGC | 1.03 ± 0.086
85 | TCGGCTTGGG | 0.987 ± 0.02
86 | TCGGCTTTGG | 0.9639 ± 0.0093
87 | TCGGGAAGGT | 1 ± 0.023
88 | TCGGGAGTAT | 1.04 ± 0.03
89 | TCGGGATAGC | 1.08 ± 0.052
90 | TCGGGATGTT | 0.989 ± 0.027
91 | TCGGGCTGGG | 1.03 ± 0.0069
92 | TCGGGCTGTG | 1.02 ± 0.05
93 | TCGGGGACCG | 0.952 ± 0.052
94 | TCGGGGATGA | 1.067 ± 0.0092
95 | TCGGGGCGCG | 0.975 ± 0.061
96 | TCGGGGCGG | 0.992 ± 0.011
97 | TCGGGGCGGC | 1.02 ± 0.046
98 | TCGGGGCGGG | 1.01 ± 0.056
99 | TCGGGGGCGA | 1.13 ± 0.17
100 | TCGGGGGCGT | 1.03 ± 0.038

Row | Sequence | switch fluorescence ratio
101 | TCGGGGGGG | 1.01 ± 0.016
102 | TCGGGGGGGC | 1.01 ± 0.072
103 | TCGGGGGGTC | 0.981 ± 0.043
104 | TCGGGGGTG | 1.01 ± 0.085
105 | TCGGGGGTGG | 0.988 ± 0.014
106 | TCGGGGTTTA | 0.994 ± 0.059
107 | TCGGGGTTTC | 1.05 ± 0.019
108 | TCGGGTAAAC | 1.03 ± 0.042
109 | TCGGGTAAGT | 1.01 ± 0.077
110 | TCGGGTACTG | 0.979 ± 0.093
111 | TCGGGTATGG | 1.01 ± 0.042
112 | TCGGGTCATG | 1.04 ± 0.04
113 | TCGGGTCCGC | 1.06 ± 0.046
114 | TCGGGTCGCG | 0.9948 ± 0.00097
115 | TCGGGTGAAC | 0.983 ± 0.041
116 | TCGGGTGGGA | 1.05 ± 0.058
117 | TCGGGTGGTG | 0.92 ± 0.16
118 | TCGGGTTGGT | 1.02 ± 0.061
119 | TCGGGTTTAT | 1 ± 0.037
120 | TCGGTAGCGA | 1.14 ± 0.17
121 | TCGGTCAAGG | 0.949 ± 0.02
122 | TCGGTCCTGC | 1 ± 0.024
123 | TCGGTCGCGG | 0.974 ± 0.028
124 | TCGGTCGTGC | 1.03 ± 0.034
125 | TCGGTGATGG | 0.988 ± 0.021

Row | Sequence | switch fluorescence ratio
126 | TCGGTGTCTA | 0.985 ± 0.02
127 | TCGGTGTGCA | 0.985 ± 0.024
128 | TCGGTTAATA | 1.018 ± 0.0054
129 | TCGGTTACAT | 0.983 ± 0.016
130 | TCGGTTCATT | 0.9962 ± 0.004
131 | TCGGTTGTGT | 1.08 ± 0.078
132 | TCGGTTGTTG | 1.01 ± 0.013
133 | TCGGTTTAAC | 1.04 ± 0.038
134 | TCGGTTTGCA | 0.997 ± 0.018
135 | TCGGTTTGCG | 1.01 ± 0.022
136 | TCGTAACTTA | 1.03 ± 0.011
137 | TCGTAATGAG | 1.019 ± 0.0034
138 | TCGTAATTGT | 1.02 ± 0.024
139 | TCGTACATGA | 1.013 ± 0.00015
140 | TCGTACGAAG | 1 ± 0.032
141 | TCGTAGAAGG | 0.991 ± 0.048
142 | TCGTAGAGTG | 0.954 ± 0.026
143 | TCGTAGGGG | 0.961 ± 0.018
144 | TCGTATACGG | 0.963 ± 0.044
145 | TCGTATTAAG | 0.969 ± 0.046
146 | TCGTATTACG | 1.03 ± 0.094
147 | TCGTCAAATT | 0.991 ± 0.067
148 | TCGTCAACGG | 1.01 ± 0.023
149 | TCGTCCGAAG | 1.45 ± 0.04
150 | TCGTCTAAGG | 0.995 ± 0.014

Row | Sequence | switch fluorescence ratio
151 | TCGTCTAATG | 0.9784 ± 0.0016
152 | TCGTGAGGGG | 1.02 ± 0.047
153 | TCGTGATTGG | 1.007 ± 0.0097
154 | TCGTGCGGTT | 1.01 ± 0.032
155 | TCGTGGGCGA | 0.993 ± 0.011
156 | TCGTGTATAT | 1 ± 0.027
157 | TCGTGTATCT | 0.946 ± 0.039
158 | TCGTGTATGA | 1.036 ± 0.0059
159 | TCGTGTGACT | 0.98961 ± 8.7e-05
160 | TCGTGTGATG | 0.9686 ± 0.0049
161 | TCGTGTTCGA | 1.001 ± 0.0094
162 | TCGTTAATCA | 0.9835 ± 0.0088
163 | TCGTTAGATG | 0.989 ± 0.023
164 | TCGTTAGGTG | 1.03 ± 0.025
165 | TCGTTATGT | 0.97732 ± 9.1e-05
166 | TCGTTATGTC | 1 ± 0.032
167 | TCGTTCAATC | 1.314 ± 0.01
168 | TCGTTGGGGG | 0.995 ± 0.013
169 | TCGTTGTTAT | 1 ± 0.023
170 | TCGTTTAATT | 0.994 ± 0.04
171 | TCGTTTTTGA | 0.985 ± 0.039
172 | TCGTTTTTGG | 1 ± 0.041
173 | TCGTTTTTTA | 1.22 ± 0.45
174 | TCGTTTTTTG | 0.984 ± 0.016
175 | TCTAAAGCTG | 1 ± 0.023

Row | Sequence | switch fluorescence ratio
176 | TCTAAAGGAT | 1.006 ± 0.004
177 | TCTAAATAGC | 1.05 ± 0.038
178 | TCTAAATCG | 1.04 ± 0.055
179 | TCTAAATTTA | 1.01 ± 0.06
180 | TCTAAGGGTG | 1.014 ± 0.01
181 | TCTAAGGTTA | 1 ± 0.02
182 | TCTAATACGG | 1.04 ± 0.02
183 | TCTAATCCGG | 1.015 ± 0.0051
184 | TCTAATCGGA | 0.975 ± 0.04
185 | TCTAATGGAA | 1.01 ± 0.018
186 | TCTACATGAT | 1.05 ± 0.013
187 | TCTACCTACA | 1.33 ± 0.051
188 | TCTACGGGGT | 1.46 ± 0.55
189 | TCTAGAATGG | 0.982 ± 0.033
190 | TCTAGCAACG | 1.01 ± 0.032
191 | TCTAGCGTAC | 2.64 ± 0.44
192 | TCTAGGAAAG | 0.991 ± 0.034
193 | TCTAGGAGGT | 0.987 ± 0.028
194 | TCTAGGGGTG | 1.03 ± 0.025
195 | TCTAGTCGAA | 1.02 ± 0.036
196 | TCTAGTGGTT | 1 ± 0.019
197 | TCTAGTGTCG | 1.03 ± 0.11
198 | TCTATAGTTC | 1.01 ± 0.034
199 | TCTATCGTTA | 1.04 ± 0.03
200 | TCTATGGTCT | 0.99 ± 0.011
